Measurements as given in paper PMC7353164.

Target: Tim21HA (yeast) (UniProt P53220)
Assay: co-IP

UniProt P53220, sequence (P53220 71-239): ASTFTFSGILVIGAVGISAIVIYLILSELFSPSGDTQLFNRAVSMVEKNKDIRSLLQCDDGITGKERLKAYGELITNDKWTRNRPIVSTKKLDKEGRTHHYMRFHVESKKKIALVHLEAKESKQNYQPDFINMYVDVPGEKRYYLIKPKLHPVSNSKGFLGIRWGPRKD

## Mgr2 G26L (from UniProt Q02889 1-113) (natural protein)
  percent reduction of co-precipitation against wild type: 50%
